Measured values taken from publication PMC4504005, “Structural Basis for Receptor Activity-Modifying Protein-Dependent Selective Peptide Recognition by a G Protein-Coupled Receptor” (Molecular cell, 2015).
“And” between values parts separate entries of the source, which are not always exact repeats. Identical values can stand only once.

Columns and labels:
[1] = target: MBP-RAMP1 ECD-(GSA)3-CLR ECD-H6 tethered fusion protein (UniProt O60894); assay: AlphaScreen or HTRF; competition assay: purified tethered receptor ECD fusion protein with biotin-CGRP or biotin-AM (100 nM each in Figure 6), unlabelled competitor peptide varied; apparent affinities
[2] = target: MBP-RAMP2 ECD [L106R]-(GSA)3-CLR ECD-H6 tethered fusion protein (UniProt O60895); assay: as above

Substance | pIC50 [1] | pIC50 [2] | IC50 [1] [nM] | IC50 [2] [nM]
CGRPmut [F37Y] (peptide) | 6.24 | 4.79 | – | –
AM(37–52)NH2 (peptide) | – | 5 | – | –
CGRP(8–37)NH2 (peptide) | 5.01 | – | 2000 | –

More lines, now with the values ahead:

pIC50 [1] | pIC50 [2] | IC50 [1] [nM] | IC50 [2] [nM] | Substance
6.79 | – | 460 | – | CGRP(27–37)NH2 [D31, P34, F35] (peptide)
– | 4.92 and 4.84 | – | 5000 to 15000 | AM(22–52)NH2 (peptide)
